From the domain aggregation screens of Martell et al. (2025)

Experiment: soluble fraction after stress (log2 fold change); higher = more stays soluble; pooled small domains, quantitative proteomics
Details: stress: 75 degC
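Also: 20 min heating vs room temperature control held 20 min.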

Sequence	soluble fraction (log2)
HMSAPTAFSERELELLAGMRRGASNKAMAEQLFISVNTVKYHRANLMRKLGARDRNEALEVAARLG	0.404
HMSAQDLIVKTDATQVEARVLEISPEQIRYKRFSNPDGPTYVLPVDAVDYIRYANGETDSFR	0.076
HMSASAIYVRPKDVKEPEEVADYLSGVLELDREKLYKKITDKSQWIALIERKVDNDIAFDIRNKKFKGIEI	-0.301
HMSASIAEGTVIMLENTTNIRSGMSEDSSKVGTAYAGEKVTVVMSYAEGWTKVKWNGETGYIKTALLQL	-0.607
HMSASNSIDFANRMIYNKNQVAVFNFGKHMGRPVLEVLKSDPSYYDWMMKGDFPMDTKRKLTEIKLQGF	-0.793
HMSATPQRMTIIDALDSSGKNLSAYELLDLLNDKGQLFNISTIYRVLDFWIEMGIVHKINSSNTYL	0.15
HMSATQDAAIAVRIRDILSELDGYEDVTVTVTSGIVTMRGTTLDSEKIARLNDLTGRVEGVVAIENSVTET	-0.207
HMSAVIGTATVTTSSGSLNLRESASLYSRVIRTIPRGATVDVLSRDTSWSRVRYAGSEGYVLNQYLTFQT	-2.1
HMSDAGMNQIGDMFRAPDLMAKLAMNPATREYVSQPDFLAMMEEVKRNPSALNNHLRDPRMMNVLSVAM	-0.271
HMSDAPLLSIRSLAVAFDGTRVVDGVSFDVARGEVVALVGESGSGKTVTGLSLLDLVPPPGRRVGGEV	0.278
HMSDDAVVRMRVPEDALGLSLRETDFRQRFGVYVLAIETRDGKLLAPPDPQRPLGKDDVLVVIQKR	-0.847
HMSDDLLTGLDAYSRGDWTTATASFERVLTTADPNNRTEALYWLVMSETSAQNYQRALNYANTFL	-0.707
HMSDDSTIVELLASSLRRDIAFGTLLPDQKLKLNELRTRYGGSIHSMRETLRILSAEGLVEATAQRGFRVT	0.0731
HMSDEIQLQFIQISIFKDHPWADMQIKDMNIIPDLLIVMILRDGERIIPNGNTRIMPGDMVIITAMSANT	-2.54
HMSDESALIAAIEKAIAAQPETAEKVRNGHLPAAGALIGSVMKETKGQADAARVRELLLGLLGQ	0.441
HMSDESRAEIVSSAKRLFQQYGYKKTTVSDIAKAMGKVKSAIYYYFPDKESLLRAVIDEEVG	0.0318
HMSDFEASDPALLREGMRVQHLNFGKGTVITIEGAGANKKASVAFDGVGTKQLMLRFARLKIIYE	-2.59
HMSDFKDIILKLRNEQGFTQEKLADVLGTSKSTVGMWEMGVRFPSKELYEAIADYFNVDIDYLYGRTDIR	-0.83
HMSDGYETLVNMAKPFLNNSKQITENDITDAVNTVSVMLKKRYDMTDEDIRKAVSELLHFYA	-0.305

Sequence	soluble fraction (log2)
HMSDIDHIAGRRIRQARLNAGMTLETLASQAGISKALLSKIENSKVSSPLATFSKISKVLGVPLSDLLKE	-0.748
HMSDILALMPGTIKQILVAPGDSVKRGQTVIIMESMKMELTIAAHRDGVVKRIPVEQGGQVEKGMRLLELE	-1.86
HMSDIPEGYMSRVQLGDEWGIHLATFDKAVIAVKEKLGTVVFIDKSNNTTAGYSPEQQTIIYDWLAEN	-2.22
HMSDKNVYGKYKNVFLSDEEFSELKQFYPNDWSDRIETLSEGIELKGYKYKNYLLAIKKWAEYEGQKAD	-0.47
HMSDKPIFIDTAGIAALSAIGFSKYQATIIFNYIKKGGAIYTVKDLAKIYSIDQKTIDLTQSKIIFS	0.365
HMSDKPRYYINGNTLFISDKSVKKVLFSDLSGRSILHTTETAINIATFRGAHILTVIYTDGSTKSEVIF	-1.47
HMSDLLYAHPTEKGFQLVNVTQKVVMVILKTAAPNVYTVKGKNAIVFKEGNSWFYSENHNKKLLNIK	-3.18
HMSDLQTGDINQDGTVDEKDLSLLHSYNLELIKTISNAADLNEDGVINGLDEAYLKRLFLQNSDP	-0.122
HMSDLTEVIVKFSGDIQPIRQDLDAQVEILLKGYAIITLSPNKIGRLYSYPQIESIEIPKNLYI	-2.73
HMSDPASLQRRLMSDPELTARILDSPFTRSLLDDPNLLRQMVNANPQLRRAMDANPQLRHAL	-0.267
HMSDPEAFIRQTVAAAEPEGIALSVLGKRVRGKFRTFKLRDLGYAQFRPYLGDLDGIKVEQRDGQSYARLD	-1.03
HMSDPSRKADFIAALSSLGGSAGNGKLREQLGWDEPTYDAVKQTLLDEGAITNGRGRGGSVALAG	0.976
HMSDPTDRLVLEAALKALGEEERQVVLLHAASGLKHREIARDLGLPLSTVLSRYSRALKKLQRYLTEEGVH	-1.2
HMSDPVDDLLLRISQQAGVARGQLVAELNMLVQDRFGGNLRHEAAAVLMAKRYGIEFRDLLPALREHLVKN	-0.804
HMSDPVKQVAMRILDLREISDYTVDKMAEVLNVPVEEYRKYESGEVDMPISFLVKIGEVFHVDMTELLTG	-1.55
HMSDQTYVKDPETGEIFRVHKRVWETGEFWRDPVWGNILGGVERGSELERLLREEGWRPLQQSLEGFPEQ	-0.284
HMSDRESYGRYRNVSLTLSEYESLKNEYPLYADKYIERLSEYMETAGKHYNNHYATILSWLSKDIK	-0.201
HMSDSGLPLPRFVSLGDDRVNARAGPGFRFPINWVYLRKNFPVEVIDEFGHWRRIKDIDGIEGWIHLSML	-0.793
HMSDTSELESIIAQIIEDNPKSIEDIGAGNQKAYGFLTGQVMKATKGQANPQVANKIIRELVARKLE	≥ 1.04
